Data reported in patent US20240002531A1 (ONO PHARMACEUTICAL, published 2024).

Columns and labels:
[1] = molecular target: T1, W614A peptide (HER2 603-622 with W614A) (human); assay: SPR Biacore, mAb on chip, peptide analyte (ka N.D.)
T1 peptide: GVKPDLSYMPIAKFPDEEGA

[2] = molecular target: T2, G621A peptide (HER2 603-622 with G621A) (human); assay: SPR Biacore, mAb on chip, peptide analyte, 1:1 fit;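 also: where kon or koff could not be resolved by kinetic fitting, Kd comes instead from steady-state equilibrium analysis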
T2 peptide: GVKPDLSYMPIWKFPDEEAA

[3] = molecular target: T3, P612A peptide (HER2 603-622 with P612A) (human); assay: SPR Biacore, mAb on chip, peptide analyte, 1:1 fit;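 also: where kon or koff could not be resolved by kinetic fitting, Kd comes instead from steady-state equilibrium analysis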
T3 peptide: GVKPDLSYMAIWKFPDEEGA

[4] = molecular target: T4, E620A peptide (HER2 603-622 with E620A) (human); assay: SPR Biacore, mAb on chip, peptide analyte, 1:1 fit;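 also: where kon or koff could not be resolved by kinetic fitting, Kd comes instead from steady-state equilibrium analysis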
T4 peptide: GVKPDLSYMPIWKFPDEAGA

[5] = molecular target: T5, P606A peptide (HER2 603-622 with P606A) (human); assay: SPR Biacore, mAb on chip, peptide analyte, 1:1 fit;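 also: where kon or koff could not be resolved by kinetic fitting, Kd comes instead from steady-state equilibrium analysis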
T5 peptide: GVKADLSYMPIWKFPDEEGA

[6] = molecular target: T6, M611A peptide (HER2 603-622 with M611A) (human); assay: SPR Biacore, mAb on chip, peptide analyte, 1:1 fit
T6 peptide: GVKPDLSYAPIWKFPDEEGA

[7] = molecular target: T7, G603A peptide (HER2 603-622 with G603A) (human); assay: SPR Biacore, mAb on chip, peptide analyte, 1:1 fit
T7 peptide: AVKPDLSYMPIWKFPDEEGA

[8] = molecular target: T8, Y610A peptide (HER2 603-622 with Y610A) (human); assay: SPR Biacore, mAb on chip, peptide analyte, 1:1 fit
T8 peptide: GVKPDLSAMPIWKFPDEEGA

[9] = molecular target: T9, E619A peptide (HER2 603-622 with E619A) (human); assay: SPR Biacore, mAb on chip, peptide analyte, 1:1 fit
T9 peptide: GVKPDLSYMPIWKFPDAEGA

[10] = molecular target: T10, HER2 peptide p603-622 (amino acids 603 to 622 of human HER2) (human); assay: SPR Biacore, mAb on chip, peptide analyte, 1:1 fit
T10 construct: Synthetic peptide; also called wild-type HER2 peptide
T10 peptide: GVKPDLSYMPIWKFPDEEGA

[11] = molecular target: T11, A622G peptide (HER2 603-622 with A622G) (human); assay: SPR Biacore, mAb on chip, peptide analyte, 1:1 fit
T11 peptide: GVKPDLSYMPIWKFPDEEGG

[12] = molecular target: T12, D618A peptide (HER2 603-622 with D618A) (human); assay: SPR Biacore, mAb on chip, peptide analyte, 1:1 fit
T12 peptide: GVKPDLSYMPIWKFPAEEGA

[13] = molecular target: T13, S609A peptide (HER2 603-622 with S609A) (human); assay: SPR Biacore, mAb on chip, peptide analyte, 1:1 fit
T13 peptide: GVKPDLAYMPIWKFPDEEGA

[14] = molecular target: T14, D607A peptide (HER2 603-622 with D607A) (human); assay: SPR Biacore, mAb on chip, peptide analyte, 1:1 fit
T14 peptide: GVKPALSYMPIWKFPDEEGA

[15] = molecular target: T15, K605A peptide (HER2 603-622 with K605A) (human); assay: SPR Biacore, mAb on chip, peptide analyte, 1:1 fit
T15 peptide: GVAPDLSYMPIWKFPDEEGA

[16] = molecular target: T16, F616A peptide (HER2 603-622 with F616A) (human); assay: SPR Biacore, mAb on chip, peptide analyte, 1:1 fit
T16 peptide: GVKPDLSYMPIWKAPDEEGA

[17] = molecular target: T17, L608A peptide (HER2 603-622 with L608A) (human); assay: SPR Biacore, mAb on chip, peptide analyte, 1:1 fit
T17 peptide: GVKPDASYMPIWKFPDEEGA

[18] = molecular target: T18, K615A peptide (HER2 603-622 with K615A) (human); assay: SPR Biacore, mAb on chip, peptide analyte, 1:1 fit
T18 peptide: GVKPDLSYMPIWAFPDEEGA

[19] = molecular target: T19, I613A peptide (HER2 603-622 with I613A) (human); assay: SPR Biacore, mAb on chip, peptide analyte, 1:1 fit
T19 construct: also called 1613A
T19 peptide: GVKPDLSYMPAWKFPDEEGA

[20] = molecular target: T20, P617A peptide (HER2 603-622 with P617A) (human); assay: SPR Biacore, mAb on chip, peptide analyte, 1:1 fit
T20 peptide: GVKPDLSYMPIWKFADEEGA

[21] = molecular target: T21, HER2 peptide 613-632 (amino acids 613 to 632 of human HER2) (human); assay: ELISA, peptide coated at 10 µg/ml, antibody 10 µg/ml
T21 construct: Synthetic peptide
T21 peptide: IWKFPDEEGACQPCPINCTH

[22] = molecular target: T10, HER2 peptide p603-622 (amino acids 603 …); assay: SPR Biacore, mAb on chip, peptide analyte, 1:1 fit; Table 2 (deletion mutants series)

B1: H2Mab-250 antibody (antibody, V domains shown)
VH: EVQLVESGGGLVQPGGSLKLSCAASGFTFSNYGMSWVRQTPDRRLELVATINNNGGGTYYPDSVKGRFTISRDNAKNTLYLQMSSLKSEDTAMYYCTSPGLLWDAWGAGTTVTVSS
VL: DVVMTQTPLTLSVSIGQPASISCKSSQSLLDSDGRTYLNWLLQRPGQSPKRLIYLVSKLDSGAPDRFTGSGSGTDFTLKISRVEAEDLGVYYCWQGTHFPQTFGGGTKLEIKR
notes: Mouse monoclonal from a hybridoma (immunogen HER2ec made in LN229 cells); also called antibody of the present invention
In the case of B1, the koff [1] is reported as 0.00438 s⁻¹, the Kd [2] is reported as 6.91 nM and the koff [2] is reported as 0.000399 s⁻¹. For the same binder, the kon [2] was 57800 M⁻¹ s⁻¹, the Kd [3] was 9.54 nM and the koff [3] was 0.000609 s⁻¹. The kon [3] was 63800 M⁻¹ s⁻¹, the Kd [4] was 7.98 nM and the koff [4] was 0.000455 s⁻¹. It also gave a kon [4] of 57100 M⁻¹ s⁻¹, a Kd [5] of 5.34 nM and a koff [5] of 0.000393 s⁻¹. The kon [5] was 73600 M⁻¹ s⁻¹, the Kd [6] was 7.45 nM and the koff [6] was 0.000445 s⁻¹. For the same binder, the kon [6] was 59700 M⁻¹ s⁻¹, the Kd [7] was 5.87 nM and the koff [7] was 0.00043 s⁻¹. It also gave a kon [7] of 73300 M⁻¹ s⁻¹, a Kd [8] of 7.9 nM and a koff [8] of 0.000451 s⁻¹. It also gave a kon [8] of 57100 M⁻¹ s⁻¹, a Kd [9] of 6.29 nM and a koff [9] of 0.000465 s⁻¹. For the same binder, the kon [9] was 73900 M⁻¹ s⁻¹, the Kd [10] was 5.8 nM and the koff [10] was 0.00037 s⁻¹. The kon [10] was 63900 M⁻¹ s⁻¹, the Kd [11] was 6.87 nM and the koff [11] was 0.000453 s⁻¹. The kon [11] was 65900 M⁻¹ s⁻¹, the Kd [12] was 5.8 nM and the koff [12] was 0.000432 s⁻¹. For the same binder, the kon [12] was 74500 M⁻¹ s⁻¹, the Kd [13] was 6.51 nM and the koff [13] was 0.000394 s⁻¹. It also gave a kon [13] of 60600 M⁻¹ s⁻¹, a Kd [14] of 7.06 nM and a koff [14] of 0.00052 s⁻¹. For the same binder, the kon [14] was 73600 M⁻¹ s⁻¹, the Kd [15] was 6.45 nM and the koff [15] was 0.000346 s⁻¹. It also gave a kon [15] of 53600 M⁻¹ s⁻¹, a Kd [16] of 204 nM and a koff [16] of 0.0108 s⁻¹. For the same binder, the kon [16] was 52800 M⁻¹ s⁻¹, the Kd [17] was 8.79 nM and the koff [17] was 0.000431 s⁻¹. For the same binder, the kon [17] was 49100 M⁻¹ s⁻¹, the Kd [18] was 336 nM and the koff [18] was 0.00963 s⁻¹. For the same binder, the kon [18] was 28700 M⁻¹ s⁻¹, the Kd [19] was 93.9 nM and the koff [19] was 0.00828 s⁻¹. The kon [19] was 88400 M⁻¹ s⁻¹, the Kd [20] was 207 nM and the koff [20] was 0.00914 s⁻¹. For the same binder, the kon [20] was 44100 M⁻¹ s⁻¹ and the binding result [21] was “binds”.

B2: H2Mab-214 antibody (antibody, V domains shown)
VH: QVTLKESGPGILQPSQTLSLTCSFSGFSLSTSGMGVSWIRQPSGKGLEWLAHIFWDDDKRYNPSLKSRLTISKDTSRNKVFLKITSVDTADTATYYCARRVVATDWYFDVWGAGTTVTVSS
VL: DIVLTQSPASLAVSLGQRATISCRASESVEYYGTTLMQWYQQKPGQPPKLLIYAASKVESGVPARFSGSGSGTDFSLNIHPVEEDDVAMYFCQQSRKVPLTFGAGTKLELKR
notes: as for B1
With B2 the kon [22] was 234000 M⁻¹ s⁻¹ and the binding result [21] was “binds”.
